Like-named read-outs stand apart in the source and are kept apart here. Marks after values point to notes of the source that are not given here. Some results are limits rather than exact numbers.

Data set [1] has as its system SARS-CoV-2. The class given is cell-based.
Data set [2] concerns Vero cells (Monkey Kidney Epithelial Cells). Particulars: Vero cells.

B1: lactoferrin (protein, UniProt P24627 20-708, looked up)
Lactotransferrin: APRKNVRWCTISQPEWFKCRRWQWRMKKLGAPSITCVRRAFALECIRAIAEKKADAVTLDGGMVFEAGRDPYKLRPVAAEIYGTKESPQTHYYAVAVVKKGSNFQLDQLQGRKSCHTGLGRSAGWIIPMGILRPYLSWTESLEPLQGAVAKFFSASCVPCIDRQAYPNLCQLCKGEGENQCACSSREPYFGYSGAFKCLQDGAGDVAFVKETTVFENLPEKADRDQYELLCLNNSRAPVDAFKECHLAQVPSHAVVARSVDGKEDLIWKLLSKAQEKFGKNKSRSFQLFGSPPGQRDLLFKDSALGFLRIPSKVDSALYLGSRYLTTLKNLRETAEEVKARYTRVVWCAVGPEEQKKCQQWSQQSGQNVTCATASTTDDCIVLVLKGEADALNLDGGYIYTAGKCGLVPVLAENRKSSKHSSLDCVLRPTEGYLAVAVVKKANEGLTWNSLKDKKSCHTAVDRTAGWNIPMGLIVNQTGSCAFDEFFSQSCAPGADPKSRLCALCAGDDQGLDKCVPNSKEKYYGYTGAFRCLAEDVGDVAFVKNDTVWENTNGESTADWAKNLNREDFRLLCLDGTRKPVTEAQSCHLAVAPNHAVVSRSDRAAHVKQVLLHQQALFGKNGKNCPDKFCLFKSETKNLLFNDNTECLAKLGGRPTYEEYLGTEYVTAIANLKKCSTSPLLEACAFLTR
notes: multifunctional globular protein of the transferrin family, 80 KDa
Turning to B1, the “Mean ΔCt” value in data set [1] (0.59 mg/ml, scheme A (preincubation of virus with compound)) is given as 0.23; in data set [1] (0.59 mg/ml, scheme B+C (during and after inoculum)), 0.04; in data set [1] (0.59 mg/ml, scheme B+C+D (during, after inoculum and repeated)), −0.25; in data set [1] (1.17 mg/ml, scheme A (preincubation of virus with compound)) it was 0.76; in data set [1] (1.17 mg/ml, scheme B+C (during and after inoculum)), −0.08; in data set [1] (1.17 mg/ml, scheme B+C+D (during, after inoculum and repeated)), −0.21. Moreover, the “Mean ΔCt” value is 0.42 in data set [1] (2.34 mg/ml, scheme A (preincubation of virus with compound)); −0.28 in data set [1] (2.34 mg/ml, scheme B+C (during and after inoculum)); −0.47 in data set [1] (2.34 mg/ml, scheme B+C+D (during, after inoculum and repeated)); 0.25 in data set [1] (4.68 mg/ml, scheme A (preincubation of virus with compound)); −1.52 in data set [1] (4.68 mg/ml, scheme B+C (during and after inoculum)); −2.47 in data set [1] (4.68 mg/ml, scheme B+C+D (during, after inoculum and repeated)). Besides, in data set [2] (72 h, MTT), the CC10 is recorded as >4.68§ mg/ml. Moreover, the CC50 in data set [2] (72 h, MTT) is reported as >4.68§ mg/ml. Besides, the “maximum nontoxic concentration (assumed)” value in data set [2] (based on CC50/CC10 data) was found to be 4.68 mg/mL.

The values are drawn from patent US20230270828A1, “COMPOSITION FOR USE IN THE TREATMENT OF VIRAL INFECTIONS” (BICT S.R.L., priority 2020, published 2023).
